The values below come from PMC9352680, “A comprehensive thermodynamic model for RNA binding by the Saccharomyces cerevisiae Pumilio protein PUF4”.

Residue numbers refer to the chain shown, from its start. Numbers in names are those of the source.

T1: PUF4 RNA-binding domain (Saccharomyces cerevisiae, UniProt P25339 537-888)
T1 sequence: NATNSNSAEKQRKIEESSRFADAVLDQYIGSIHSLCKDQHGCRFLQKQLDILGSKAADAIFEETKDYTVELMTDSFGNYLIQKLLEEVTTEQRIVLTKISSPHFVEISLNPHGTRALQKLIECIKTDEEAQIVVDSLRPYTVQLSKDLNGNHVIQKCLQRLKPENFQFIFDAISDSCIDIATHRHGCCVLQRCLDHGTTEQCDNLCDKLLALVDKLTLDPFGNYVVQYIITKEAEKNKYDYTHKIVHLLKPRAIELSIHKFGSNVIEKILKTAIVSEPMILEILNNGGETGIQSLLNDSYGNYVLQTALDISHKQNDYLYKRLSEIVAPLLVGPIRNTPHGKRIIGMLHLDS

B1: Ic_S2_P5E.1_K5.1_C5.1_H5.1_A5.1_[T5C]_[T6A]_F5.1_[A10C]_T5.1 (ssRNA)
RNA: UUUGAUUAAUAUGAUAUCGUUCUUUCUUGUACAAUUCUUCUUUCUCGAUAUCAUAUUAAUCUUU
B2: Ic_S2_P5E.1_K5.1_C5.1_H5.1_A5.1_[T5C]_[T6G]_[A7T]_F5.1_[T8C]_[T9G]_[A10T]_T5.1 (ssRNA)
RNA: B1 RNA with A33G, A34U, U35C, U36G, C37U
B3: Ic_S2_P5E.1_K5.1_C5.1_H5.1_A5.1_[T6A]_[A7C]_F5.1_[T9A]_[A10C]_T5.1 (ssRNA)
RNA: B1 RNA with C32U, A34C, U36A
B4: Ic_S2_P5E.1_K5.1_C5.1_H5.1_A5.1_[T5C]_[T6A]_[A7C]_F5.1_[T8C]_[T9A]_[A10T]_T5.1 (ssRNA)
RNA: B1 RNA with A34C, U35C, U36A, C37U
B5: Ic_S2_P5E.1_K5.1_C5.1_H5.1_A5.1_[T5C]_[T6C]_F5.1_[T9A]_[A10C]_T5.1 (ssRNA)
RNA: B1 RNA with A33C, U36A
B6: Ic_S2_P5E.1_K5.1_C5.1_H5.1_A5.1_[T6A]_[A7C]_F5.1_[T8C]_[T9A]_[A10C]_T5.1 (ssRNA)
RNA: B1 RNA with C32U, A34C, U35C, U36A
B7: Ic_S2_P5E.1_K5.1_C5.1_H5.1_A5.1_[T6G]_[A7C]_F5.1_[T8C]_[T9G]_[A10G]_T5.1 (ssRNA)
RNA: B1 RNA with C32U, A33G, A34C, U35C, U36G, C37G
B8: Ic_S2_P5E.1_K5.1_C5.1_H5.1_A5.1_[T5C]_[T6A]_[A7C]_F5.1_[T9C]_T5.1 (ssRNA)
RNA: B1 RNA with A34C, U36C, C37A
B9: Ic_S2_P5E.1_K5.1_C5.1_H5.1_A5.1_[T6A]_[A7C]_F5.1_[T8G]_[T9G]_[A10T]_T5.1 (ssRNA)
RNA: B1 RNA with C32U, A34C, U35G, U36G, C37U
B10: Ic_S2_P5E.1_K5.1_C5.1_H5.1_A5.1_[T6C]_[A7T]_F5.1_[T8A]_[A10C]_T5.1 (ssRNA)
RNA: B1 RNA with C32U, A33C, A34U, U35A
B11: Ic_S2_P5E.1_K5.1_C5.1_H5.1_A5.1_[A7T]_F5.1_[T8C]_[T9A]_T5.1 (ssRNA)
RNA: B1 RNA with C32U, A33U, A34U, U35C, U36A, C37A
B12: Ic_S2_P5E.1_K5.1_C5.1_H5.1_A5.1_[T6C]_[A7T]_F5.1_[T8A]_[T9G]_[A10C]_T5.1 (ssRNA)
RNA: B1 RNA with C32U, A33C, A34U, U35A, U36G
B13: Ic_S2_P5E.1_K5.1_C5.1_H5.1_A5.1_[T5G]_[T6C]_F5.1_[T8A]_[T9A]_[A10C]_T5.1 (ssRNA)
RNA: B1 RNA with C32G, A33C, U35A, U36A
B14: Ic_S2_P5E.1_K5.1_C5.1_H5.1_A5.1_[T5C]_F5.1_[T9A]_[A10T]_T5.1 (ssRNA)
RNA: B1 RNA with A33U, U36A, C37U
B15: Ic_S2_P5E.1_K5.1_C5.1_H5.1_A5.1_[T5C]_[T6A]_[A7C]_F5.1_[T8C]_[T9C]_[A10C]_T5.1 (ssRNA)
RNA: B1 RNA with A34C, U35C, U36C
B16: Ic_S2_P5E.1_K5.1_C5.1_H5.1_A5.1_[T5A]_[A7T]_F5.1_[T8G]_[T9C]_[A10C]_T5.1 (ssRNA)
RNA: B1 RNA with C32A, A33U, A34U, U35G, U36C
B17: Ic_S2_P5E.1_K5.1_C5.1_H5.1_A5.1_[A7T]_F5.1_[T9C]_[A10G]_T5.1 (ssRNA)
RNA: B1 RNA with C32U, A33U, A34U, U36C, C37G
B18: Ic_S2_P5E.1_K5.1_C5.1_H5.1_A5.1_[A7G]_F5.1_[T8C]_[T9C]_T5.1 (ssRNA)
RNA: B1 RNA with C32U, A33U, A34G, U35C, U36C, C37A
B19: Ic_S2_P5E.1_K5.1_C5.1_H5.1_A5.1_[T5G]_[T6C]_F5.1_[T8C]_[T9C]_[A10G]_T5.1 (ssRNA)
RNA: B1 RNA with C32G, A33C, U35C, U36C, C37G
B20: Ic_S2_P5E.1_K5.1_C5.1_H5.1_A5.1_[T6C]_[A7G]_F5.1_[T8C]_[T9C]_[A10G]_T5.1 (ssRNA)
RNA: B1 RNA with C32U, A33C, A34G, U35C, U36C, C37G
B21: Ic_S2_P5E.1_K5.1_C5.1_H5.1_A5.1_[T5A]_F5.1_[T9A]_[A10T]_T5.1 (ssRNA)
RNA: B1 RNA with C32A, A33U, U36A, C37U
B22: Ic_S2_P5E.1_K5.1_C5.1_H5.1_A5.1_[T5C]_[T6G]_[A7T]_F5.1_[T8G]_[T9C]_[A10C]_T5.1 (ssRNA)
RNA: B1 RNA with A33G, A34U, U35G, U36C
B23: Ic_S2_P5E.1_K5.1_C5.1_H5.1_A5.1_[T5C]_[T6G]_[A7T]_F5.1_[T8G]_[T9G]_[A10T]_T5.1 (ssRNA)
RNA: B1 RNA with A33G, A34U, U35G, U36G, C37U

In this series the target is T1, PUF4 RNA-binding domain. Put plainly: Mg; RNA-MaP; 20 mM Na-HEPES pH 7.4, 30 mM KOAc, 0.75 mM MgCl2, 0.1% Tween-20, 5% glycerol, 0.1 mg/mL BSA, 2 mM DTT; 25 C; 0.0125-409.6 nM protein. Conditions: tags: N-His6-TEV cleaved; C-SNAP kept, Cy3B-labelled; label: tethered on chip by stalled RNA polymerase.
The Kd is the constant that tells how readily two partners part at equilibrium. Molecule B1 returned a dissociation constant (Kd) of 6.33 nM.

B2 came in with a Kd of 207 nM.

As for B3, the Kd was found to be 1.15 nM.

As to B4, the Kd stood at 14.9 nM.

With B5, the Kd stood at 1.13 nM.

In turn, B6 showed a Kd of 31.2 nM.

Consider B7, for which the Kd was found to be 1340 nM.

In turn, B8 gave a Kd of 7.78 nM.

B9 gave a Kd of 571 nM.

With B10, binding was put at a Kd of 12.7 nM.

B11: the Kd was 389 nM.

The molecule B12 registered a Kd of 23.8 nM.

For B13, binding was put at a Kd of 653 nM.

B14 returned a Kd of 0.408 nM.

In turn, B15 had a dissociation constant Kd of 67.3 nM.

As to B16, binding was characterised by a dissociation constant (Kd) of 622 nM.

B17 had a Kd of 42.9 nM.

B18 showed a Kd of 497 nM.

In turn, B19 displayed a Kd of 1330 nM.

Consider B20, for which binding was characterised by a dissociation constant (Kd) of 1530 nM.

B21: binding was put at a Kd of 1.32 nM.

Turning to B22, the Kd worked out at 205 nM.

Consider B23, for which binding was put at a Kd of 211 nM.

Take UCUCUUUGUUUAUCAUCUCUU (ssRNA) [Ib_S1_P4E.1_K4.1_C4.1_H4.1_[A4T]_A4.1_F4.1_[T8C]_T4.1]: the Kd is 917 nM.

UCUCUUUGCAUAUAAUCUCUU (ssRNA) [Ib_S1_P4E.1_K4.1_C4.1_H4.1_[T3C]_A4.1_F4.1_[T8A]_T4.1] displayed a Kd above 2300 nM.

In turn, UCUCUUUGUGUAUCAUCUCUU (ssRNA) [Ib_S1_P4E.1_K4.1_C4.1_H4.1_[A4G]_A4.1_F4.1_[T8C]_T4.1] gave a Kd of 30.1 nM.

The molecule UCUCUUUGUGUAUAAUCUCUU (ssRNA) [Ib_S1_P4E.1_K4.1_C4.1_H4.1_[A4G]_A4.1_F4.1_[T8A]_T4.1] had a Kd of 11.4 nM.
